Test results as given in the supplement of paper PMC12042874.
± gives the uncertainty stated by the source.

Test: amyloid nucleation score (Sup35N fusion, yeast selection) (log enrichment); library NNK3; higher = more nucleation; inactive = no reads after selection
Method in brief: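 Peptides of 20 random codons fused to Sup35N were expressed in psi-negative yeast, induced 24 hours with 100 μM copper sulfate, then grown 7 days at 30°C on medium lacking adenine and uracil. Input and output plasmid inserts were Illumina-sequenced. Nucleation score is the DiMSum log enrichment of output over input reads, centred on the mode score of non-aggregating sequences, excluding sequences with under 100 input reads. Random libraries had three technical output replicates.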

Row | Substance | amyloid nucleation score
1 | LESINTLLNYVYYFNLVN | inactive
2 | ASARRCVSVVLIHTAKIHRN | inactive
3 | PSCSRSVTMWKSRNLFIQLA | inactive
4 | VYCLFVTCLKGINQWMHDKS | inactive
5 | SNSHVTKDLGVCRGLATCRG | inactive
6 | LRMGVNILLAMGCFSAYPGE | 0.171 ± 0.39
7 | YRILYGWSFMIRLILDVQRE | inactive
8 | LVIACTGYVSLCR | inactive
9 | LIDWTDNRYPYRHHHFCPNA | inactive
10 | KLTNLI | inactive
11 | HVFYIVYSFISLRNHVAYLS | inactive
12 | FKVWCVLSADIQF | inactive
13 | GHQNRTP | inactive
14 | QVDISNLDCQSCRDKRVGLG | inactive
15 | RRRLIR | inactive
16 | LNILIFFCFYGVWKIWKIIS | -0.665 ± 1.3
17 | FVAHCWQSIY | inactive
18 | MTYGLFVIYMRGGSNLMLHV | inactive
19 | NTEITQLSIVLFCILYQYSV | 1.46 ± 0.11
20 | DIEMY | inactive
21 | DWTRFPSAFTGVQKSLVD | inactive
22 | PIAFQRKSSCIKSRESGSVR | inactive
23 | GCKRVVTTV | -0.606 ± 0.93
24 | PNCVISSLTFRWVIFSECEP | inactive

Row | Substance | amyloid nucleation score
25 | AFTCYELAGIWRNVTVPCYL | inactive
26 | VRESAWGLYNRYFSVFSAVV | inactive
27 | AAHCYNGVLKGVI | inactive
28 | SSSLCASWHPYLKWKSYRMF | inactive
29 | SFGIGSI | inactive
30 | VFSDHVLSF | inactive
31 | FILIYDRYRGF | 1.26 ± 0.095
32 | TSFGMSTPCQAFARSVDDRG | inactive
33 | FLVPTLHYYLGRWQKKPMLY | inactive
34 | GERVSSESGRMPLPLCCYLV | inactive
35 | CFLYYRM | 1.17 ± 0.11
36 | DLITSRSVLFVIVVL | inactive
37 | HMPVSIFSAFVYMTQNHAIG | 1.75 ± 0.062
38 | VMDVEIGSASSLYKRTSTSE | inactive
39 | KKVISSCFYRVCVSSPAGSV | inactive
40 | SAGWHTYRIKHPVSFVGKTI | inactive
41 | DCARFILIT | inactive
42 | LFHDLGFAD | inactive
43 | VSGLFDVTLRGWYG | inactive
44 | YNFECLIFWSVKYLVCQHIT | inactive
45 | MFQGHMSWII | inactive
46 | TCRPFIT | inactive
47 | PLCVWVWKLRVVFRRLYFEF | inactive
48 | GYSVYYANVSVRGLKSRDHC | inactive

Row | Substance | amyloid nucleation score
49 | TRLSSFRKIKEIYLLTQWKP | inactive
50 | LSRFD | inactive
51 | SVLWLN | inactive
52 | IPFGFSI | inactive
53 | VLLFC | inactive
54 | AVYQLDMCDLVMVSLDGTVR | inactive
55 | CNVIE | inactive
56 | HFRDAVGWGFINGCHPAGSG | inactive
57 | TRCYRASE | inactive
58 | KQLLGGPTVSFNVVYSVALK | 1.98 ± 0.088
59 | WDGLHVCLKSIIGGNSGLEK | inactive
60 | PYGKFRLNPLD | 0.652 ± 0.17
61 | DIFVNAV | inactive
62 | SGWKQSGS | inactive
63 | RRFKYIGLRGTMHRLNYFGL | inactive
64 | HELLMVSENVRCDAKSHG | inactive
65 | DRNCRLIHYFIQ | inactive
66 | VIARDDINCVRDGGQGLQIS | inactive
67 | LDCLLFKKCFVVRGLNDYSE | inactive
68 | FSMSWTVDMKE | inactive
69 | YVYWREFGACMGSQQWVVRV | inactive
70 | IMKFDSRAYNGYMQMIRPGV | inactive
71 | SQDFKLPSLSTFYRHGMEPS | inactive
72 | FCAINP | inactive

Row | Substance | amyloid nucleation score
73 | CSIWLCNKNVQIAN | inactive
74 | KTKQIYDGPLGHSYADKCNV | inactive
75 | VCSFCCFGTVRSL | 2.1 ± 0.058
76 | WGTRLWIVVQIGQEYVLLVR | -0.234 ± 1.1
77 | LAAQIMNSLCRLELSQALSR | inactive
78 | ITGVFCTSHVRFNINFKLWE | 1.97 ± 0.063
79 | LLNRDI | inactive
80 | VARSSQSISSMHMTMRYKCA | inactive
81 | HVVIARTNRGDYNCFSSDGG | inactive
82 | HQVGYGLHGPG | -0.539 ± 0.96
83 | WGTFIKSFQRLVKMVLLSMP | inactive
84 | GSSSCY | inactive
85 | PNVLLIRVLIERSCKVGWNS | inactive
86 | HLVRCNDRSNLRESGPS | inactive
87 | GTLDNDRVIVWSDLDFSCFR | inactive
88 | ESYLQRPRTSTRMFVMRLKV | inactive
89 | HIFSKVSYNFEFPRNDCCRY | inactive
90 | CMIMRAFRYNVALDMHMLHD | inactive
91 | GCLQTIADWFNFSNMN | inactive
92 | FGSHYSFRIQKVFFAVQRSP | 2.41 ± 0.082
93 | GCRLPSWMYLVGELISFLSG | inactive
94 | FGIWFGRNLGVGMDTKMSRF | inactive
95 | PSDDYGHLVWLTICCNCLD | 1.6 ± 0.079
96 | CISSCYWWFGFYVLKWE | inactive

Row | Substance | amyloid nucleation score
97 | CPCFNLV | inactive
98 | LYFNVSTTIAIRIRSYSYRV | -0.299 ± 0.62
99 | FTMASLRIKDIFWLLTNLTW | inactive
100 | ARTGYNGYQFRSGRALEITG | inactive
101 | IEAEHYCLLLVFLQVGLSSA | inactive
102 | TNNAIGVFSLECIGFPEAGR | inactive
103 | HFETNTVFQVFEICIVSCCY | 2.34 ± 0.067
104 | VFESCEYSRQVVGNFRDEM | inactive
105 | VAFFSGWQIVVLFMKVL | inactive
106 | NCTFAGLAMFGNILN | inactive
107 | ILARYLDIYMSSVPVEWVTK | inactive
108 | IYRVYYDSTLGMCPAWGFYK | inactive
109 | GNALSIEVDGSIK | inactive
110 | SCIFPILGVFADDFTMTFTW | inactive
111 | RSDLCFC | inactive
112 | STSICIGLLYAFVFEARVLC | inactive
113 | IAALNFSCRTLSL | inactive
114 | YCKFDS | 0.705 ± 0.12
115 | YMVWMLNQDRSACGINIMSI | 1.33 ± 0.12
116 | LWQGNMM | -1.07 ± 1.9
117 | SLTSWGRMMSWVPCSKELRQ | inactive
118 | AIVIRLNSVYYYGCGWLLNR | inactive
119 | AMPMATLTVPMWLLILFVTF | inactive
